This is an account of results in patent US10617743B2, “Method to improve safety and efficacy of anti-cancer therapy” (CLS Therapeutics Limited, priority 2014, dated 2020).

In series [1] the test system is white blood cell count (WBC). In words: Cyclophosphamide-induced neutropenia in mice (FIG. 3). The format is in vivo. The note with it: for Effect on typical early phase decline in WBC count (FIG. 3): cyclophosphamide 200 mg/kg IP Day 1, DNase I 25 mg/kg/day IV or GM-CSF 200 μg/kg/day SC on Days 2-5. As to the method: 30 female 10-12 week old BALB/C mice (obtained from Rappolovo animal house) were used in this experiment. […] Starting on Day 2, mice were then treated as follows: • 1. Group I (n=10): control (no treatment); • 2. […] Group III (n=10): animals were treated with human recombinant GM-CSF (Neostim, Pharmsynthez OJSC) at 200 μg/kg/day dose injected subcutaneously (SC) on Days 2-5. […] The graph in FIG. 3 summarizes the dynamics of the white blood cell count (WBC) in the three experimental groups. The vertical axis represents WBC with units of 10^9 WBC/L. The horizontal axis represents the number of days after cyclophosphamide injection.

The subject of a further series is Wistar male rats. As to conditions: for Number of dead/out of total in group: monitored 2 weeks. From the text:
Group I: control group (no Doxorubicin, no DNase); • 2.
Animals were monitored during 2 weeks from the beginning of experiment for survival and weight.

A further series has as its system gastrointestinal lesions. It is filed as in vivo, rats. The note with it: for Total number of lesions per group: 16 rats. Here is the method: On Day 1, Etoposide (LANCE) 200 mg/kg and 5-fluorouracil (5-FU; EBEWE) 400 mg/kg were given orally via feeding needle in 500 μl of a 9% glucose solution. Animals were divided into 4 groups of 16 rats each. […] Group I: IV placebo (WFI); • 2. Group II: human recombinant DNase I (Pharmsynthez OJSC) at 1.5 mg/kg (3000 KU/kg) dose IV; • 3. Group III: human recombinant DNase I (Pharmsynthez OJSC) at 50 mg/kg (100000 KU/kg) dose IV; • 4. Group IV: cimetidine solution (Gedeon Richter) at 50 mg/kg dose IV.
36 hours later, all animals were euthanized and their stomachs were removed and analyzed for the presence of erosions and hemorrhages using an automated video analyzer system.

The subject of a further series is L1210 leukemia cells. Put plainly: Survival of mice transplanted with L1210 leukemia cells (FIG. 4). As to conditions: DBA2 mice; AraC 1000 mg/kg IP Days 2, 5, 8; DNase II 15 or 45 mg/kg/day IP; alone or combined. The format is in vivo. Here is the method: Treatment with DNase and AraC was initiated on Day 1 of experiment. Cytosine arabinoside (AraC; Cytosar, Pfizer) was injected IP at a dose of 1000 mg/kg on Days 2, 5 and 8. The injected doses were considered adequate for the model and injection route based on prior experiments (13-14). DNase II (Wornington) was injected IP at doses of 15 mg/kg/day and 45 mg/kg/day on Days 1, 3, 5, 8, 10, 12, 15, 17, and 19.
Animals were randomized into 6 experimental groups of 6 mice per group as follows: • 1. Group I: negative control (no treatment); • 2. Group II: positive control (animals treated with AraC); • 3. […]; • 4. Group IV: animals treated with AraC and 45 mg/kg DNase; • 5. Group V: animals treated with 15 mg/kg DNase, no AraC; • 6. Group VI: animals treated with 45 mg/kg DNase, no AraC.
The vertical axis of FIG. 4 represents the survival measured in days after implantation with the L1210 leukemia cells. The six experimental groups are represented on the horizontal axis: 1—Negative Control; 2—AraC (positive control); 3—AraC+DNase II 15 mg/kg; 4—AraC+DNase II 45 mg/kg; 5—DNase II 15 mg/kg 6—DNase II 45 mg/kg.

For a further series, the system named is thymocytes. In words: Con A-induced lymphocyte blast transformation of thymocytes from paclitaxel-treated mice. It is filed as in vivo. As to conditions: paclitaxel 20 mg/kg IV, DNase gamma 2 mg/kg IP. Here is the method: 10 male 6-week-old (CBAxCS7Bl6) F1 mice (obtained from Rappolovo animal house) were given a single 20 mg/kg dose of paclitaxel (Paclitaxel-Teva) IV. A group of 5 paclitaxel treated mice were injected IP 1 hour later with recombinant mouse DNase gamma (USCN Life Science Inc.) at 2 mg/kg dose IP. A group of 5 untreated mice were injected IP at the same time with 1 ml of placebo (WFI) to serve as the control. All mice were killed 24 hours later by cervical dislocation. The thymuses from each group were collected and homogenized in a separator in RPMI 1640 media supplemented with 10% fetal calf serum. The suspension of thymocytes was filtered and sedimented in a centrifuge at 400×g for 2 minutes and then resuspended with the same media. Thymocytes were plated into 96 well plates (900,000 cells per well in 200 μl of RPMI 1640 supplemented with 10% fetal calf serum (FCS)) and incubated for 32 hours at 37° C., 100% humidity and 5% CO2 atmosphere. Each well was then supplemented with ^3H thymidine (1 μCi/10 μl/well) and Concanavalin A (ConA; 50 μl: 1.25 μg/ml). After 24 hours of further incubation, thymocytes were harvested and dried. Labeled ^3H thymidine incorporation was measured using a Beckman scintillation counter.

Series [2] can be described thus: Body weight of mice with Erlich carcinoma, DNase with or without radiotherapy. It is filed as in vivo.
A further series deals with Erlich carcinoma cells. In words: Survival of mice with Erlich carcinoma, DNase with or without radiotherapy. It is filed as in vivo. The note with it: for % Survival on Day 16: no radiotherapy.
A further series relates to myocardium. Put plainly: Myocardial necrosis area in deceased rats challenged with doxorubicin (FIG. 1). The note with it: Doxorubicin 7.5 mg/kg IV, DNase I 15 mg/kg daily IP vs placebo. It is filed as in vivo. Here is the method: FIG. 1 is a bar graph showing myocardial necrosis area in deceased rats challenged with sub-lethal IV doses of doxorubicin (7.5 mg/kg) and either daily IP injections of human recombinant DNase I (15 mg/kg) (black bar) or daily […] injections of placebo (WFI) (diagonal hatched bar). Serial myocardium microscopy samples from each heart were analyzed using an automated video analyzer to quantify the necrotic areas. The sum of necrotic area (Sna; nm^2) was calculated as a sum of necrotic areas in 30 serial slides from each individual autopsied heart (n=3 for DNase I-treated rats—black bar; n=5 for placebo-treated rats—diagonal hatched bar).
The hearts deceased rats challenged with sub-lethal doses of doxorubicin (7.5 mg/kg) from (Groups IV and V) were autopsied. Serial myocardium microscopy samples from each heart were analyzed using an automated video analyzer to quantify the necrotic areas. The sum of necrotic area (Sna; nm^2) was calculated as a sum of necrotic areas in 30 serial slides from each individual autopsied heart (n=3 for Group IV (FIG. 1, black bars); n=5 for Group V (FIG. 1, diagonal hatched bars)). Group IV received daily IP injections of human recombinant DNase I at 15 mg/kg dose, while Group V received daily IP injections of placebo (WFI).

[3] abbreviates: Doxorubicin 7.5 mg/kg/day IV 5 days with DNase I 15 mg/kg/day IP (Group IV) or placebo IP (Group V).
Setting [4] is: Doxorubicin 10.0 mg/kg/day IV 5 days with DNase I 15 mg/kg/day IP (Group VI) or placebo IP (Group VII).
[5] abbreviates: treatment 50 mg/kg IV 2 h after Etoposide 200 mg/kg + 5-FU 400 mg/kg per os.
Setting [6] is: of 16 rats, treatment 50 mg/kg IV after Etoposide 200 mg/kg + 5-FU 400 mg/kg per os.
The mark [7] stands for this setting: DNase I 15 mg/kg/day IP with Doxorubicin IV 5 days.

Where two headings read alike, the source gives them in different places.

“GM-CSF: human recombinant GM-CSF (Neostim, Pharmsynthez OJSC)”: the “Effect on typical early phase decline in WBC count (FIG. 3)” value in series [1] is on record as “not able to prevent it”.

With `COc1cccc2c1C(=O)c1c(O)c3c(c(O)c1C2=O)C[C@@](O)(C(=O)CO)C[C@@H]3O[C@H]1C[C@H](N)[C@H](O)[C@H](C)O1` [Doxorubicin, reference compound], the results for the “Number of dead/out of total in group” value in the series on Wistar male rats (setting [3]) and in the series on Wistar male rats (setting [4]) were 5/6 and 6/6, respectively.

As for `CN/C(=N/CCSCc1nc[nH]c1C)NC#N` [Cimetidine, cimetidine, reference compound], the “Total number of lesions per group” value in the series with gastrointestinal lesions (setting [5]) came out at 40.

Consider `Nc1ccn([C@@H]2O[C@H](CO)[C@@H](O)[C@@H]2O)c(=O)n1` [AraC, cytosine arabinoside], for which the “Survival after implantation with L1210 leukemia cells (FIG. 4)” value in the series with L1210 leukemia cells was “better survival rates”.

B1: DNase gamma: recombinant mouse DNase gamma (USCN Life Science Inc.) (protein, UniProt O55070 26-310, looked up)
Deoxyribonuclease gamma: LRLCSFNVRSFGASKKENHEAMDIIVKIIKRCDLILLMEIKDSSNNICPMLMEKLNGNSRRSTTYNYVISSRLGRNTYKEQYAFVYKEKLVSVKTKYHYHDYQDGDTDVFSREPFVVWFHSPFTAVKDFVIVPLHTTPETSVKEIDELVDVYTDVRSQWKTENFIFMGDFNAGCSYVPKKAWQNIRLRTDPKFVWLIGDQEDTTVKKSTSCAYDRIVLCGQEIVNSVVPRSSGVFDFQKAYDLSEEEALDVSDHFPVEFKLQSSRAFTNNRKSVSLKKRKKGNRS
Consider B1, for which the “Effect on taxane-induced suppression of thymocytes' proliferative activity” value in the series with thymocytes is on record as “ameliorates taxane-induced suppression”.

B2: human recombinant DNase I: human recombinant DNase I (Pharmsynthez OJSC), deoxyribonuclease enzyme (protein, UniProt P24855 23-282, looked up)
Deoxyribonuclease-1: LKIAAFNIQTFGETKMSNATLVSYIVQILSRYDIALVQEVRDSHLTAVGKLLDNLNQDAPDTYHYVVSEPLGRNSYKERYLFVYRPDQVSAVDSYYYDDGCEPCGNDTFNREPAIVRFFSRFTEVREFAIVPLHAAPGDAVAEIDALYDVYLDVQEKWGLEDVMLMGDFNAGCSYVRPSQWSSIRLWTSPTFQWLIPDSADTTATPTHCAYDRIVVAGMLLRGAVVPDSALPFNFQAAYGLSDQLAQAISDHYPVEVMLK
Take B2: in series [2] (Group 4: radiotherapy 200 cGy per day for 5 days plus DNAse I 20 mg/kg/day intramuscularly), the “Change in Median Body Weight on Day 16” value was determined as 0 g. Besides, the “Effect on body weight loss induced by radiotherapy” value in series [2] (mice with Erlich carcinoma, radiotherapy plus DNase I) is “clearly prevents the body weight loss”. The “Effect on neutropenia induced by cyclophosphamide (FIG. 3)” value in series [1] (cyclophosphamide 200 mg/kg IP Day 1, DNase I 25 mg/kg/day IV Days 2-5) is given as “ameliorates neutropenia”. The “Effect on typical early phase decline in WBC count (FIG. 3)” value in series [1] was “prevents the typical early phase decline in WBC count”. In addition, in the series with Erlich carcinoma cells (DNase I alone (Groups 2 and 3)), the “Survival rates versus non-treated mice” value is “better survival rates”. Also, the “% Survival on Day 16” value in the series with Erlich carcinoma cells (Group 2: DNAse I 20 mg/kg/day intramuscularly in 2 daily doses) is recorded as 40%; with Erlich carcinoma cells (Group 3: DNAse I 40 mg/kg/day intramuscularly in 2 daily doses), 50%. Further, the “Survival of combination of radiation therapy and DNase versus either treatment alone” value in the series with Erlich carcinoma cells (Groups 4 and 5, dose-dependent on DNase) is reported as “clear survival advantage”. For the same molecule, the “Total number of lesions per group” value came to 60 with gastrointestinal lesions (treatment 1.5 mg/kg IV 2 h after Etoposide 200 mg/kg + 5-FU 400 mg/kg per os) and 16 in the series with gastrointestinal lesions (setting [5]). Further, in the series with gastrointestinal lesions (DNase I 50 mg/kg IV, rats treated with etoposide and 5-FU), the “Achieved protection compared to 1.5 mg/kg DNase I dose and 50 mg/kg dose of cimetidine” value was “significantly superior”. Moreover, the “Number of lesion free animals” value in the series with gastrointestinal lesions (of 16 rats, treatment 1.5 mg/kg IV after Etoposide 200 mg/kg + 5-FU 400 mg/kg per os) was determined as 5; in the series with gastrointestinal lesions (setting [6]) it was 12. Besides, the “Number of lesion free animals (percent)” value in the series with gastrointestinal lesions (setting [6]) is 75%. In the series on gastrointestinal lesions (rats treated with etoposide and 5-FU, dose-dependent (1.5 and 50 mg/kg IV)), the “Effect on chemotherapy-induced ulceration” value is “suppresses chemotherapy-induced ulceration”. Further, the “Effect on lethality of doxorubicin” value in the series with Wistar male rats (setting [7]) is “suppresses the lethality of doxorubicin”. Moreover, the “Effect on life span of rats challenged with sub-lethal doses of doxorubicin” value with Wistar male rats (setting [7]) is listed as “increases the life span”. The “Number of dead/out of total in group” value in the series with Wistar male rats (setting [3]) is recorded as 3/6; with Wistar male rats (setting [4]), 6/6. Moreover, the “Effect on myocardial necrosis area (FIG. 1)” value in the series with myocardium is “decreases the myocardial necrosis area”.
